Earlier results, collected in article PMC11211486.

How the values were obtained:
MepM (Escherichia coli) = MepM (Escherichia coli) (UniProt P0AFS9)
MepS (Escherichia coli) = MepS (Escherichia coli) (UniProt P0AFV4)
PBP4 (Escherichia coli) = PBP4 (Escherichia coli) (UniProt P24228)

Measured: Kd

Chain of NlpI (C4ZSQ4 19-294): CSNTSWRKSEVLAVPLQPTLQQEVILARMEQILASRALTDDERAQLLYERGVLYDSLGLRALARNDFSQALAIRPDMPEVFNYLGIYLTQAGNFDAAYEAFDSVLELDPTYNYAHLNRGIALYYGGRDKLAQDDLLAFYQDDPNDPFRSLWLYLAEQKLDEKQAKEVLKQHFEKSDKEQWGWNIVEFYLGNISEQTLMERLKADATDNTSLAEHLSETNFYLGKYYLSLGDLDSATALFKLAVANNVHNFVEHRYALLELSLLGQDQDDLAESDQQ
Chain of MepS (Escherichia coli) (P0AFV4 27-188): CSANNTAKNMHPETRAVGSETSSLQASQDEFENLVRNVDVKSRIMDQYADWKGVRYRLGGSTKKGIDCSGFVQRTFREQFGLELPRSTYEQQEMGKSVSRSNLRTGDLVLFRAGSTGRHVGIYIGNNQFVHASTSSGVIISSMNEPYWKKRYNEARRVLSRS
Chain of MepM (Escherichia coli) (P0AFS9 whole entry): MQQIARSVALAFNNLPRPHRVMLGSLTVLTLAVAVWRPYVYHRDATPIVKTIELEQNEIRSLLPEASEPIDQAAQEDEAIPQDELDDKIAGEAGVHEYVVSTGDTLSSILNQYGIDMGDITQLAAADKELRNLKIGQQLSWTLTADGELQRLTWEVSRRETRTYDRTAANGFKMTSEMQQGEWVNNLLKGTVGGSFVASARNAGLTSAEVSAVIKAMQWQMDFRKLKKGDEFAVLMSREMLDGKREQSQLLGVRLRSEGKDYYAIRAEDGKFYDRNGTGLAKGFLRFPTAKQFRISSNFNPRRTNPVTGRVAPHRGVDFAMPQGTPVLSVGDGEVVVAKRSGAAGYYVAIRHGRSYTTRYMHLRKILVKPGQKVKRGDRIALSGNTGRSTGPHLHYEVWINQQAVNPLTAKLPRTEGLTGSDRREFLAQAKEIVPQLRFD
Chain of PBP4 (Escherichia coli) (P24228 21-477): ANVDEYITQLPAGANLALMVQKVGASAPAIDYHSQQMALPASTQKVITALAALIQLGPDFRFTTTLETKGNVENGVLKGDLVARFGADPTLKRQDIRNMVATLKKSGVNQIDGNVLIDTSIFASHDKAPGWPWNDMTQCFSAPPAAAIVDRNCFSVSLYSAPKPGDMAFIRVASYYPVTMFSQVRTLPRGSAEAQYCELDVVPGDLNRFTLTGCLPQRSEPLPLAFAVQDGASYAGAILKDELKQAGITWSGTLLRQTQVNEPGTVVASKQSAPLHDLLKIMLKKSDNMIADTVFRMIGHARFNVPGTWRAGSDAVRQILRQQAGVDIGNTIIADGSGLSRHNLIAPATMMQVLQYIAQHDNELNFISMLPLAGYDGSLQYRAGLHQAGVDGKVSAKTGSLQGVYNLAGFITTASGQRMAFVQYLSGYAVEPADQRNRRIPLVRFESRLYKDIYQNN

NlpI (from UniProt C4ZSQ4)
150 nM: all assays above
